Key:
Test in all cases: flow cytometry, labelled antibody at 1 µg/ml, HEK293T cells expressing the construct
[1] = target: T1, IL-3Rα/GM-CSFRα chimeric protein, region 3 (91-STWILFPE-98) of IL-3Rα replaced by GM-CSFRα sequence, on … (human, UniProt P26951 19-378)
T1 construct: also called Region 3 (A)
T1 chain: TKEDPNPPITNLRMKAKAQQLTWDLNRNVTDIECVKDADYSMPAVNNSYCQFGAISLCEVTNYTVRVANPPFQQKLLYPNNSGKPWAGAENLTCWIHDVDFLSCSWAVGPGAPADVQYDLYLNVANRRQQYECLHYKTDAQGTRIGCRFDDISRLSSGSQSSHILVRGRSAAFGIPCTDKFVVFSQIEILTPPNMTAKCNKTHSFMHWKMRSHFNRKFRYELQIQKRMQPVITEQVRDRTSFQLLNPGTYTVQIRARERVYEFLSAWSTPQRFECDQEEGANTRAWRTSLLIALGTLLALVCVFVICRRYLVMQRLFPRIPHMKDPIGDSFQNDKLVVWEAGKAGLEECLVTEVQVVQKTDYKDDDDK

[2] = target: T2, IL-3Rα/GM-CSFRα chimeric protein, region 4 (97-…-104) of IL-3Rα replaced by GM-CSFRα sequence, on HEK293T … (human, UniProt P26951 19-378)
T2 construct: also called Region 4 (A-B)
T2 chain: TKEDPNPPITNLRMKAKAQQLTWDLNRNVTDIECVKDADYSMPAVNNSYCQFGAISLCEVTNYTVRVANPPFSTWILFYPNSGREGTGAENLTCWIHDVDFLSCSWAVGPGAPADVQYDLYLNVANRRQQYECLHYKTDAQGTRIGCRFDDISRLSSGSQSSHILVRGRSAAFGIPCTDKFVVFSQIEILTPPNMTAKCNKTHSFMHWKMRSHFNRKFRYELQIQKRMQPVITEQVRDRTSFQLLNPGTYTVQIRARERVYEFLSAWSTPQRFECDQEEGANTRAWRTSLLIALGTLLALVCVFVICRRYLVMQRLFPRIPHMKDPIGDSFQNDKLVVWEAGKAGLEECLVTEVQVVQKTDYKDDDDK

[3] = target: T3, IL-3Rα/GM-CSFRα chimeric protein, region 6 (182-ILVRGRS-188) of IL-3Rα replaced by GM-CSFRα sequence, on … (human, UniProt P26951 19-378)
T3 construct: also called Region 6 (B)
T3 chain: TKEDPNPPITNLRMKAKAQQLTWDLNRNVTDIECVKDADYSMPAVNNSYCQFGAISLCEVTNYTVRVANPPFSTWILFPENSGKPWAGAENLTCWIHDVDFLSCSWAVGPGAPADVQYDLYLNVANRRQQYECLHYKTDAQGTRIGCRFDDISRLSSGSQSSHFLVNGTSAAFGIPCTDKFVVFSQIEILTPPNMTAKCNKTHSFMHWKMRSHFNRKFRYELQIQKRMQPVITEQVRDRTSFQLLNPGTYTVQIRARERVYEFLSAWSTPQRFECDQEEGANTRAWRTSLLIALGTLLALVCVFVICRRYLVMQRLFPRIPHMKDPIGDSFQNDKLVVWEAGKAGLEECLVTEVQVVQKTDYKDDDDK

[4] = target: T4, IL-3Rα/GM-CSFRα chimeric protein, region 7 (192-GIPCTDK-198) of IL-3Rα replaced by GM-CSFRα sequence, on … (human, UniProt P26951 19-378)
T4 construct: also called Region 7 (B)
T4 chain: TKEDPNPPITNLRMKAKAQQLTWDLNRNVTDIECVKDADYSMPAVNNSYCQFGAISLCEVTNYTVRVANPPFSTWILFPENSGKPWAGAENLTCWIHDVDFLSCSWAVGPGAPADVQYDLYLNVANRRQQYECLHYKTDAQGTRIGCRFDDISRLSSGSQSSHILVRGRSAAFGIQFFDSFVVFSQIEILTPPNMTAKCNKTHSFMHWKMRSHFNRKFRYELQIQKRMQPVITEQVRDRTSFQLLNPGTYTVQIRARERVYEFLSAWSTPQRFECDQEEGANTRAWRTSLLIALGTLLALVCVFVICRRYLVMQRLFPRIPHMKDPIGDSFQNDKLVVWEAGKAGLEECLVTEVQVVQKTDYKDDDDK

Measured: binding result

B1: Old19 anti-human IL-3Rα human antibody (antibody, human IgG1, V domains shown)
VH: QVQLVQSGAEVKKPGSSVKVSCKASGGTFSSYAISWVRQAPGQGLEWVGGIIPIFGTANYAQKFQGRVTITADESTSTAYMELSSLRSEDTAVYYCARGHKYGPYYFDYWGQGTLVTVSS
VL: DIQMTQSPSSLSASVGDRVTITCRASQGISSWLAWYQQKPEKAPKSLIYAASSLQSGVPSRFSGSGSGTDFTLTISSLQPEDFATYYCQQYNSYPRTFGQGTKVEIK
notes: Human antibody; recombinant form in N5KG1-Val Lark vector (human IgG1, kappa)
no binding (tested: 1 µg/ml): [1] | [2] | [3] | [4]

Reference: patent US20160280792A1 (Kyowa Kirin, published 2016)
